From US20030203464

Target: Rac1 (UniProt P63000)

Substance	GEF activity (32P-GTP bound to the GTPase, filter assay), with ascorbyl stearate	GEF activity (32P-GTP bound to the GTPase, filter assay), without lipid	GEF activity (32P-GTP bound to the GTPase, filter assay), with and without ascorbyl stearate
66 kD Tiam-1	Other truncations of Tiam-1, all containing the DH and PH domains (FIG. 3), also exhibited AS stimulated GEF activity on Rac 1		
85 kD Tiam-1	ascorbyl stearate (AS) stimulated the rate of Tiam-1-mediated nucleotide exchange on Rac 1	this truncation alone, at various concentrations, exhibited no GEF activity towards Rac 1	
106 kD Tiam-1	Other truncations of Tiam-1, all containing the DH and PH domains (FIG. 3), also exhibited AS stimulated GEF activity on Rac 1		
135 kD Tiam-1			shows weak GEF activity towards Rac in the absence of AS, but is still greatly stimulated by AS
